The values below come from patent US20240101687A1 (ABL BIO, published 2024).

For experiment [1], the target named is T1, human IGF1R extracellular domain, His-tagged (human, UniProt P08069 31-932).
T1 construct: Bought (R&D Systems 391-GR or Sino Biological 10164-H08H); also called recombinant IGF1R; ECD of IGF1R
Kind of experiment: SPR (Biacore T200), His-tagged human IGF1R ECD captured by anti-His antibody on CM4 chip, bivalent model; F06 IgG. For orientation: SPR reads the build-up and loss of mass on a sensor chip optically.
Procedure: The anti-his antibody against the His tag bound to the human IGF1R ECD as an antigen was diluted to 20 μg/ml in acetate pH4.0 buffer, and then immobilized in the reference/analytic channel of the CM4 chip to 10,000 RU as a target RU according to the amine coupling method. During capture, PBS was used as a running buffer, and the flow rate was maintained at 30 μL/min. During association/dissociation, the flow rate was 40 μL/min, and PBS was used as the running buffer. The association/dissociation was 5 minutes and 20 minutes, respectively.

Experiment [2] concerns the target T2, human alpha-synuclein aggregates (fibrils) (human, UniProt P37840 1-140). Put plainly: SPR (BIAcore), antibody captured on Protein A chip, alpha-synuclein fibril (sample aSyn180330) as analyte, 1:1 binding fit, 25 C.
Procedure: (§1) The running buffer, analyte dilution, and the sample dilution buffer were HBS-EP. […] For the capture, the monomer was for RU of 800 (theoretical), and a fibril was for RU of 100 (theoretical). The capture phase was performed at contact time of 60 seconds, a flow rate of 30 μl/min, and a stabilization period of 180 seconds. The association phase was performed at the association time of 120 seconds and the flow rate was 30 μl/min. The dissociation phase was performed at the dissociation time of 360 seconds and the flow rate of 30 l/min. The regeneration phase was performed twice time at the regeneration time of 240 seconds (primary) and 60 seconds (secondary) and a flow rate of 30 μl/min. The fitting was carried out suing 1:1 binding model, and the evaluation software was BIACore T200 Evaluation software (GE healthcare).
Experiment [3] has as its target T3, human IGF1R on cells (human, UniProt P08069 31-1367).
T3 construct: also called endogenous IGF1R on the cell surface (MCF-7, JIMT-1, BT474, SKBR3); IGF1R library on OVCAR3 cells
Kind of experiment: FACS on MCF-7 cells, 10 ug/mL (2nd Ab only: 2.86).
Procedure: After washing with PBS buffer containing 1% BSA, the secondary antibody bound with FITC to detect human antibodies was treated for 1 hour.

Experiment [4] addresses T2, human alpha-synuclein aggregates …. Kind of experiment: sandwich ELISA, antibody coated in a dilution series, synuclein fibril aggregates at 2000 ng/ml; C of the 4-P fit, which paragraph 260 calls EC50.
Procedure: Specifically, each antibody was diluted at 1/10 ratio of concentrations 0.04 to 400 nM and was coated on a 96-well plate, and then each well was treated with synuclein fibril aggregates were treated at 2000 ng/ml. After washing with 1×PBS, streptavidin conjugated with HRP and secondary antibody conjugate with biotin was treated and then reacted with TMB as a substrate. The absorbance was measured.
The target is the same in experiment [5]. Kind of experiment: BIAcore as in Example 4-3, α-syn aggregates.
Procedure: as §1

B1: F06 IgG antibody (antibody, V domains shown)
VH: EVQLLESGGGLVQPGGSLRLSCAASGFTFSSYDMSWVRQAPGKGLEWVSAISYDNGNTYYADSVKGRFTISRDNSKNTLYLQMNSLRAEDTAVYYCAKGVLTTLMNWFDYWGQGTLVTVSS
VL: QSVLTQPPSASGTPGQRVTISCTGSSSNIGSNDVSWYQQLPGTAPKLLIYANSNRPSGVPDRFSGSKSGTSASLAISGLRSEDEADYYCGTWAGSLNGYVFGGGTKLTVL
For the molecule B1, the Kd in experiment [1] is 478 nM.

B2: hu11F11(ver.2) (antibody, human IgG1, kappa, V domains shown)
VH: EVQLVESGGGLVQPGGSLRLSCATSGFTFSDFYMEWVRQPPGKRLEWIAASRNKANDYTTEYSASVKGRFTVSRDDSKSSLYLQMNSLRAEDTAIYYCARDAHGKPFAYWGQGTTVTVSS
VL: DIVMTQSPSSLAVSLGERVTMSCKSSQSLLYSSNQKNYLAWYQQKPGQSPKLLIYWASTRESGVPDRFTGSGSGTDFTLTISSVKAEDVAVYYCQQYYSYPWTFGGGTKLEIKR
notes: humanized IgG1; also called Hu11F11-VH-v2 + Hu11F11-VLv3 4c
Regarding B2, in experiment [2], the koff (usually a measure of how fast the partners let go of each other) amounted to 0.000173 s⁻¹ and the kon (commonly the second-order rate constant of association) was determined as 1.19e+06 M⁻¹ s⁻¹. In addition, in experiment [3], the “GeoMean, Internalization at 37° C.” value came to 3.18. Also, in experiment [4], the EC50 – broadly, the concentration that produces a half-maximal response – was determined as 15.1 nM. The Kd in experiment [5] is 0.0596 nM.
